From the DeepSol protein solubility set

Experiment: soluble on expression in E. coli; label from the status in PepcDB or PDB records
With “MKNNADFAYQAVYRYLVQLVDQGQGESALKMPSLRHLAQRLRVSISTVQSAYSLLEKEGRIYSVAKSGYYSAPRSAAIEVRARFDSDGDLLQMHHYYARRSGMSLLSSDAPTLLQAQESPLLAMEHELVRNYPRPRQADFQPFGELQLRIALAARYTRGAEHCWHADNVHVAPDVHGAFKAVIETLGLRGGAVLVESPCAWGLLRLLRSFDIRVIELPLDETGSLDPIQLERLLLENNVGLVVLPSMFNSVRGSVRPLCNSRAVAKVLDRHQVWVLENDSHGALQFAADQTCLRHLIDPQRLIIIGTFEKCLGPEAPYGYLLCKNLDARWQAYFLLRAFELPPTRQRAIARLCSSGRLDKHLAQLREALAGHLQLMMQHLNEHTDGLLRYEVPEGGCGIWARSVYPVDMRQVFNRLLAKRIVITPGELFSLESLYGQHLWISYAIDWSRDPGELFSALAQALHLARQP” the “soluble on expression in E. coli” value was “not soluble”.
With “SNAPLLLGKKAPNLYMTDTTGTYRYLYDVQAKYTILFFWDSQCGHCQQETPKLYDWWLKNRAKGIQVYAANIERKDEEWLKFIRSKKIGGWLNVRDSKNHTDFKITYDIYATPVLYVLDKNKVIIAKRIGYENLDDFLVQYEKSLKTK” the “soluble on expression in E. coli” value was “soluble”.
In the case of “MAHHHHHHMSSQKESKKRKSDALDQACLELSEEVENAEEVPKKNDEVEEEDLETQFSNWKVNSGLLYDFVSRKELEWPSLSIDFGDYHNENVEDSVFNQIVCVGTHTSNKELNYLYVCEVLFPLEQLPQENCIYKTNQNYEGFDFCPDKKKFTIQSKIAHEGEVNRIKFLPLEKKNFVVTKAIDGNLHLFDINKHEIETSEDKMSPEVSFIGNSSDGFGLDFNAEKKYALTCGNDGVLNLYDYTEMDSKKVSPFYSVKYKSPLNDVCATNDPNLILSCADNGYILMYDIRVKGEEPAQQVLGQQVAVNCISLNKFTGHFASGSENGKIKIWDIKRFSEPQHIIHAHKEPIIRLNFSPNDSSILGSASTSRFINIYNLTKIGEELDAIDLSDGPSELIFSHGGHTQPITDFNWNHHKQLKMFIGSTGEDNTLQFWQLKTELLDEANTVPTSNTDVE”, the “soluble on expression in E. coli” value was “not soluble”.
In the case of “SPRGLELLIAQTILQGFDAQYGRFLEVTSGAQQRFEQADWHAVQQAMKNRIHLYDHHVGLVVEQLRCITNGQSTDAEFLLRVKEHYTRLLPDYPRFEIAESFFNSVYCRLFDHRSLTPERLFIFSSQPERRFRTIPRPLAKDFHPDHGWESLLMRVISDLPLRLHWQNKSRDIHYIIRHLTETLGPENLSKSHLQVANELFYRNKAAWLVGKLITPSGTLPFLLPIHQTDDGELFIDTCLTTTAEASIVFGFARSYFMVYAPLPAALVEWLREILPGKTTAELYMAIGCQKHAKTESYREYLVYLQGCNEQFIEAPGIRGMVMLVFTLPGFDRVFKVIKDKFAPQKEMSAAHVRACYQLVKEHDRVGRMADTQEFENFVLEKRHISPALMELLLQEAAEKITDLGEQIVIRHLYIERRMVPLNIWLEQVEGQQLRDAIEEYGNAIRQLAAANIFPGDMLFKNFGVTRHGRVVFYDYDEICYMTEVNFRDIPPPRYPEDELASEPWYSVSPGDVFPEEFRHWLCADPRIGPLFEEMHADLFRADYWRALQNRIREGHVEDVYAYRRRQRFSVRYGEMLF”, the “soluble on expression in E. coli” value was “soluble”.
For “MRVIEVKNLTFSYDGKHNVLEDVSFYVEKGDFLGIVGPNGAGKSTLLKLILGFLKPKSGEIYLFGKKIEEFKDWKRVGYVPQRLSVEHAFPGTVKELLSSVCEDKKEIDYLVEFLKLKNIVNKQFTKLSGGQQQRVLLAMALSYNPELILLDEPTVGLDVHAINHFMSILLDLNMNHKKSIVMISHDIGTLLKHASKILCLNKKVCYFGEPEGAIEYIEEAFGLRGFLHGVS”, the “soluble on expression in E. coli” value was “soluble”.
For “MNIQALINDKVSQALEAAGAPAGSPAAVRQSAKPQFGDYQANGVMGVAKKLGTNPREFAQKVLDVLDLDGIASKTEIAGPGFINIFLSEEFLAKQADAALADSR”, the “soluble on expression in E. coli” value was “not soluble”.
For “MKEHQKLEHPAQVKTKSFEDAAFEMLSTVSPIKLPRDEIPFDSVREIVLGEIIKSKQRNSRSSANDRRNMDDLLDEAPSSSSSSSHVGESSSSNLDRGTMTDEGCTDIGGAPRPIAARLYGDCTRSSSTSTSSAAGPSCSSDVATVENSKKKPLNYREKRLAEIRAARLKKYRENAEIVEFKCEENCLAEVFTKYYLELLDDEAGPANLYYRVVESLDVYFRVKTWESNCPKLLCEFLCDHILKTCQQLNELHESKNMTDEWRARECQIQVLLTLHVYVVTDERRWLDEAINKLRMIYISVGAERLRTFVEEPVTDIYLELIGDGLATIYDELCINLPADLIQYDTGLFKMTETDDSLVVKRRNGAANRLEQMLNETSADLGVGGVERARRTSTEAAAPQRRSLKRRNIEDVPKELLSPARTTRTSRSDYKHFFVEDTPDEKYQKKTTKVEEIEMNEEEDGEIGAESTSKRKTVTIKEEIDEEVKQTPMAKLRASAKLNGKRCSKRLSDLVKLSEERTQVTKKARENLNKLLEKANTPIRSVTRPIRKSVLFGSAGSMSSSPATTKCARGTSSRTSLLNKFSEMEEKKKSPLAVDTSDGHIIHTPSSASESTTPVLRDRATRRRTTRFNDKNYQPNVLKQEMHDPEFDAMESSMASPSKRTTKNSSTAASASTTPVSKWTDRQLKRQLGLTREDLNRYREAMLTTGERNRNKNVKINWESAQVNRAGRVKGAGASEDGTPIFGIARRNVRTMICHVLLNDTNPDTSFDWNKVKFDDFCGKPRTRQFQSLIQKPEAYMESLKQKYIESRVSSAKRMRSNDGASTSSRPAKRRRSNASSPKKQTASSSASSTKSLKSPVKLEAFDDFGFESEADD”, the “soluble on expression in E. coli” value was “soluble”.
With “SMSQIMYNYPAMLGHAGDMAGYAGTLQSLGAEIAVEQAALQSAWQGDTGITYQAWQAQWNQAMEDLVRAYHAMSSTHEANTMAMMARDTAEAAKWGG” the “soluble on expression in E. coli” value was “soluble”.
With “MDIGRAVRFLRKRQGWTQQQLADFSHTSKSNISNLENGNQGYSPAILEYLAKAFNCSVSQIFLLAENMDNEGNLLKDWQHMPIDVLFIQLPQEVQCQLKHLIFTLIDTKK” the “soluble on expression in E. coli” value was “not soluble”.
With “MPKSVKVIAVTPEEREAVMSIDFGGAYDFTSPGFNLFEVREKYSEPMDAAAGVVYNLLWNSGLPEKFGCREQTLLNFILQCRRRYRRVPYHNFYHVVDVCQTLHTYLYTGKASELLTELECYVLLVTALVHDLDHMGVNNSFYLKTDSPLGILSSASGNNSVLEVHHCSLAIEILSDPAADVFEGLSGQDVAYAYRALIDCVLATDMARHGDLSRVFDDMAKAGYDSNDQESRRLVMETLIKAGDVSNVTKPFETSRMWAMAVTEEFYRQGDMEKEKGVEVLPMFDRSKNNELARGQIGFIDFVAGKFFRDIVGNLFHGMQWCVDTVNSNRAKWQEILDGRRDSIRPSIV” the “soluble on expression in E. coli” value was “soluble”.
In the case of “AVSFTGVSGVKNIVAVTACPTGVAHTFMSAEAIEAYAKKQGWNVKVETRGQVGAGNEITVEEVAAADLVFVAADIDVPLDKFKGKPMYRTSTGLALKKTEQEFDKAFKEAKIF”, the “soluble on expression in E. coli” value was “not soluble”.
With “MGSDKIHHHHHHMITISHITAKNMYKSLEERINKFPQGAPPSDTLYKILNVLYTEQEAKLVAQLPIKPFRVKTAAKIWSVSESEAYRVLDKLASKALILDIEDNKGKKYIMPPPMAGFFEFAMMRTRHDIDQKLLAELYYQYMNVEEDFIKDLFYSTETKLGRVYVQEEVLTNDNEVSILDYERATHIIDESTHIGISMCYCRHRMQHVGKACDAPMDICMTFDNVANSLINNKFARRVDKIECKELLHQAYEHNLVQCGENVRKGVTFICNCCGCCCEAMVAAKRFGNLHPVQTTSFIPNINHENCVKCGKCITACPIDAISKVKEDGKEYIKIDEDRCLGCGVCVRNCHKNSIMLLKRDEKIITPANSVHRAVLMAIEKGQLQNLIFDNNALASHRAMGAILSAILKLEPAKKILASKQLKSVYLDKLLSMNDK” the “soluble on expression in E. coli” value was “not soluble”.
With “MTIHIYNTLTRQKEEFTPLEENKVKMYVCGPTVYNYIHIGNARPPMVFDTVRRYLEYKGYDVQYVSNFTDVDDKLIKAANELGEDVPTIADRFVEAYFEDVTALGCKHATVHPRVTENMDIIIEFIQELVNKGYAYESEGDVYFRTKEFEGYGKLSHQPIADLRHGARIEVGEKKQDPLDFALWKAAKEGEIFWESPWGQGRPGWHIECSAMARKYLGDTIDIHAGGQDLAFPHHENEIAQSEALTGKTFARYWMHNGYININNEKMSKSLGNFILVHDIIKQYDPQLIRFFMLSVHYRHPINFSEELLQSTNNGLERIKTAYGNLKHRMESSTDLTDHNEKWLADLEKFQTAFEEAMNDDFNTANAITELYNVANHANQYLLEEHTSTVVIEAYVKQLETLFDILGLELAQEELLDEEIEALIQKRIEARKNRDFALSDQIRDDLKDRNIILEDTAQGTRWKRG” the “soluble on expression in E. coli” value was “soluble”.
In the case of “MHTLLLLAALSNQITFTTTQQGDIYTVIPQVTLNEPCVCQVQILSVRDGVGGQSHTQQKQTLSLPANQPIELSRLSVNISSEDSVKIIVTVSDGQSLHLSQQWPPSAQ”, the “soluble on expression in E. coli” value was “not soluble”.
With “MGSDKIHHHHHHMSGPQGRLAIIAGSGMLPVYVAEAARAAGEDPFILPLKNEADQRWDGFQSAVIGVGDMAGLSSLIKRHGIKRVVMSGGVKKRPNFKEIHVNLRFLVKLPFAVKTLLSGGDDAVLKMVIQLIESQGCRVVGAHEIAPQLLAELGPLGSSRPTDDDRRDIAAAAKAADALGRLDVGQGAVSVGGRIVALEGVEGTDRMLQRVAELRSEGRISSRRSGVLVKLCKPQQDIRADLPTIGQSTIENAARAGLSGIAVQAGRALLLQRQETLRQADAAGIFISGIELAPEGEAWLS” the “soluble on expression in E. coli” value was “not soluble”.
For “SALDTNYCFRNLEENCCVRPLYIDFRQDLGWKWVHEPKGYYANFCSGPCPYLRSADTTHSTVLGLYNTLNPEASASPCCVPQDLEPLTILYYVGRTPKVEQLSNMVVKSCKCS”, the “soluble on expression in E. coli” value was “soluble”.
For “MILAILQARMSSTRLPGKVLMPLQRQPMIVRQIERVARSKRIDKLVVATSDRPEDDAIEAAVRREGIAVFRGSLDNVQQRFIGALDAHPADHVVRLTADCPLADPTLIDATIDLCLSKGADYVSNTPEGHAHPKGTDVEVMTAAALRRAAAEATTKEAFEHVTWDLWNQPQRWTCAWLPCFPDQGAVRWTVDRPDDYAFVAAVYDALYPANRAFTSDDIRAFVAGRPDLQDYGGDRRALEHHHHHH”, the “soluble on expression in E. coli” value was “not soluble”.
With “MGSDKIHHHHHHMPAYKVLQKGKTGDLLNVKHLYIKDIQSGEKVQDSFLVTEKNVAYSQKGAPYLNLRLKDKTGQVDGKIWDNALEWDKRFRKGDVVQVNARAVSFRNSLQLSILSLNTLDDSEVILNDYVPTTRMNVEVMFSELQSIIDRIDTPPLKKLLKSFFDDREIAERFKRAPAAKGFHHIYLGGLLEHTHSVTRLLSQIASHYPGVNRDLLLTGGILHDIGKINEFSYDRLVEYSDEGRLIGHIIIGVEMIDEKITAIPDFPAYLAMELRHLILSHHGILEYGSPKRPKTLEALMVHYVDDLDAKVNAFQEYLNDFRDEDTGWTPFHRFLERYLYRGRVQEITAEEPISPKEF” the “soluble on expression in E. coli” value was “not soluble”.
For “MGSDKIHHHHHHMGIRSHLAIAAGKTSQWVLQTFFKGGSSYPGKLALKIDPKILDTLAKDYEIVVVTGTNGKTLTTALTVNILRQEFDEVLTNPTGANMEQGIVSTFLNAKAKKGQKKFAVLEIDEASLSRVTKYIQPKLFVFTNIFRDQMDRYGEIYTTYRLIMEGAAAAPEATILCNGDSPIFNSKETVNPRKYYGFNHLPPKEQLAHYNTDGVLCPKCNHILHYKMITYANLGDYYCPNCGFKRPELDVQLTEMVRMDNTSADFVIDGEEYGIAVGGMYNVYNALAATAVAEYYQVAPDKIRAGLAYDEKVFGRQETIKVGDKECTLVLVKNPVGLNQVIDMMGLAPYSFSLVSLLNANYADGIDVSWIWDGNHEAFADMDIPKVIAGGDRHEDMALRLKVAGIPEEKLLEIADLEQVISEIKTLPTDHVYILATYTAVLQLRKSLTAQGYIQGGMNGV”, the “soluble on expression in E. coli” value was “not soluble”.
